Experimental data reported in paper PMC11029812, “Liver-targeted polymeric prodrugs delivered subcutaneously improve tafenoquine therapeutic window for malaria radical cure” (Science Advances, 2024).

Assays:
[1] = test system: G6PD-deficient huRBCs; test: Hemotoxicity in humanized G6PD deficiency mouse model; assay type: in vivo, human RBCs engrafted in NOD/SCID mice
Protocol: Following procedures as previously published ([46]), hemotoxicity studies using huRBC engraftments were conducted in mice.
Female (8 to 9 weeks) NOD.CB17-Prkdcscid/J [nonobese diabetic severe combined immunodeficient (NOD/SCID)] mice were purchased from The Jackson Laboratory (Bar Harbor, ME). The animals were housed in a cage maintained in a specific pathogen–free animal facility and were acclimated for 1 week in the facility before initiation of experimental procedures. Sterile food and water were provided ad libitum throughout the study as previously described ([64]). All animal studies were performed under IACUC-approved protocols and adhere to the principles stated in the Guide for the Care and Use of Laboratory Animals ([100]).
Polymer solutions for SC administration were prepared in DPBS at the final dosing concentrations. All drug concentrations were calculated per the free base molecular weights of TQ. The TQ parent compound was administered intragastrically via an intragastric feeder tube. Polymers and vehicle were administered SC in the right flank. TQ, pSVCTQ, and vehicle were given as a single dose on day 0. In this model, the TQ dose studied was 10 mg/kg; pSVCTQ was tested at doses of 2.5, 5.0, or 10 mg/kg TQ equivalent.
The percentage of huRBCs at the end of this period was analyzed by flow cytometry to evaluate glycophorin A (huRBCs) and Ter119 (mouse RBCs) circulating in peripheral blood. […] The G6PD-deficient huRBC NOD/SCID mice were dosed with pSVCTQ or parent drug prepared as described above, with three to four mice per group. On days 4 and 7 following dosing, huRBC levels were assessed again by flow cytometry (glycophorin^+Ter119^−), along with the percentage of murine reticulocytes (CD71^+Ter119) as an additional marker of hemolytic toxicity. Mice were euthanized on day 7 following initiation of treatment.
Microsoft Excel and GraphPad Prism were used throughout the PK analysis to process the data, calculate pharmacokinetic parameters, and yield statistical information. A linear regression model was produced using the least squares fitting method with 1/x^2 scaling for the assay calibrators. […] For the G6PD deficiency model, data analysis was performed using GraphPad Prism (GraphPad Software). […] An F test comparing the two dose-response curves was also run. For all other work, a combination of Microsoft Excel and GraphPad Prism was used.

[2] = test system: primary NHP hepatocytes; test: Hepatocyte toxicity in the P. cynomolgi anti-hypnozoite assay; assay type: cell-based, cynomolgus monkey; settings: treatment days 4 to 7 after infection, readout day 8
Protocol: Cryopreserved primary cynomolgus monkey hepatocytes (lot STX) and hepatocyte culture medium (HCM) (InVitroGro CP medium) were obtained from BioIVT Inc. (Baltimore, MD, USA) and thawed following the manufacturer’s recommendations. Hepatocytes were seeded in 384-well collagen-coated plates and used for experiments within 2 days after seeding as previously described ([52]). Infectious sporozoites were obtained from Anopheles dirus mosquitoes infected with P. cynomolgi B strain and were used to infect the plated primary NHP hepatocytes 2 days after seeding ([52], [102]). HCM was changed the day after infection and every other day thereafter until drug treatment. […]
Imaging and image analysis of assay plates were completed using an Operetta CLS high-content imaging system and Harmony 4.9 software (PerkinElmer, Waltham, MA, USA). […] Using similar methodology described previously, parasites were counted with the TRITC channel and were identified by area, mean intensity, maximum intensity, and cell roundness parasites ([50], [99]–[102]). […] Percent inhibition (PI) and toxicity values were calculated relative to in-plate negative controls for parasites and hepatocytes, respectively, using GraphPad Prism software (GraphPad Software Inc., USA, Windows version 9.5.1) using the average of experimental and biological replicates. […]

p(GalNAc-MA-co-SVCTQ-MA) [pSVCTQ]
Dose resulting in 50% hemolysis (TD50) ([1]; curve fit of Fig. 4B, single dose, pSVCTQ SC, TQ oral, day 7): 11.2 mg/kg
Reduction of hemotoxicity compared to oral TQ ([1]; from median effective doses): greater than twofold
Median effective dose (dose that results in 50% huRBC loss by day 7 relative to vehicle control) ([1]; single dose day 0, pSVCTQ SC, TQ oral, A− G6PD-deficient donor): 11.4 mg/kg
IC50 [2]: > 161 µM
